Measurements as given in patent US20110250613A1, “Arrayed Multiple Ubiquitin Binding Domains as Linkage-specific Polyubiquitin Affinity Reagents” (THE JOHNS HOPKINS UNIVERSITY, priority 2009, published 2011).

Legend:
Settings in all cases: free fluorescent UBA domain
[1] = target: T1, K63-Ub2 (Homo sapiens, UniProt P0CG47, K63R); assay: Fluorescence anisotropy binding of fluorescent free UBA domains to K63-Ub2
T1 construct: Ub and K48- and K63-linked diUb and tetraUb were made as described; made in house
From the text: (§1) Fluorescent Labeling. Ede1 UBA, hHR23A UBA1, Dsk2 UBA and Ddi1 UBA were produced as intein fusions and fluorescently labeled using expressed protein ligation as described in Scheibner et al., 2003. The dipeptide used for Ede1 labeling was Cys-Lys, with NHS-rhodamine (Pierce) coupled to the lysine amino group, and was a kind gift from Philip Cole (Johns Hopkins School of Medicine). MALDI mass spectroscopy confirmed the addition of the fluorescent dipeptide to the Ede1 UBA domain and that there was complete cleavage of the initiating methionine residue. hHR23A UBA1, Dsk2, and Ddi1 UBAs were labeled in a similar way, except that the dipeptide contained a fluorescein moiety instead of rhodamine. The fluorescein-labeled dipeptide was made as described in Scheibner et al., 2003. […]
(§2) Fluorescence Anisotropy Binding Assays. Fluorescence anisotropy measurements were performed as described (Sims and Cohen, 2009) using excitation and emission maxima of 492 nm/520 nm (fluorescein), 556 nm/569 nm (Alexa Fluor 546), or 555 nm/578 nm (rhodamine), in binding buffer at 25° C. The concentrations of the fluorescent proteins were calculated using published extinction coefficients (Invitrogen-Molecular Probes). polyUb concentrations were assessed from absorbance at 280 nm using the Ub extinction coefficient of 0.16 (mg per ml)^−1 cm^'1.49. […]

[2] = target: T2, K48-Ub2 (Homo sapiens, UniProt P0CG47, K48R); assay: Fluorescence anisotropy binding of fluorescent free UBA domains to K48-Ub2
T2 construct: Ub and K48- and K63-linked diUb and tetraUb were made as described; made in house
From the text: as §1, §2

[3] = target: T3, K63-Ub4 (Homo sapiens, UniProt P0CG47, K63R); assay: Fluorescence anisotropy binding of fluorescent free UBA domains to K63-Ub4
T3 construct: Ub and K48- and K63-linked diUb and tetraUb were made as described; made in house
From the text: as §1, §2

[4] = target: K48-Ub4; assay: Fluorescence anisotropy binding of fluorescent free UBA domains to K48-Ub4
From the text: as §1, §2

B1: Ede1 (protein, UniProt P34216 1-1381, looked up)
EH domain-containing and …: MASITFRTPLSSQEQAFYNQKFHQLDTEDLGVVTGEAVRPLFASSGLPGQLLSQVWATVDIDNKGFLNLNEFSAALRMIAQLQNAPNQPISAALYESTPTQLASFSINQNPAPMQSGSATGNTNNTDIPALSSNDIAKFSQLFDRTAKGAQTVAGDKAKDIFLKARLPNQTLGEIWALCDRDASGVLDKSEFIMAMYLIQLCMSHHPSMNTPPAVLPTQLWDSIRLEPVVVNQPNRTTPLSANSTGVSSLTRHSTISRLSTGAFSNAASDWSLSFEKKQQFDAIFDSLDKQHAGSLSSAVLVPFFLSSRLNQETLATIWDLADIHNNAEFTKLEFAIAMFLIQKKNAGVELPDVIPNELLQSPALGLYPPNPLPQQQSAPQIAIPSRASKPSLQDMPHQVSAPAVNTQPTVPQVLPQNSNNGSLNDLLALNPSFSSPSPTKAQTVVQNNTNNSFSYDNNNGQATLQQQQPQQPPPLTHSSSGLKKFTPTSNFGQSIIKEEPEEQEQLRESSDTFSAQPPPVPKHASSPVKRTASTTLPQVPNFSVFSMPAGAATSAATGAAVGAAVGAAALGASAFSRSSNNAFKNQDLFADGEASAQLSNATTEMANLSNQVNSLSKQASITNDKKSRATQELKRVTEMKNSIQIKLNNLRSTHDQNVKQTEQLEAQVLQVNKENETLAQQLAVSEANYHAAESKLNELTTDLQESQTKNAELKEQITNLNSMTASLQSQLNEKQQQVKQERSMVDVNSKQLELNQVTVANLQKEIDGLGEKISVYLTKQKELNDYQKTVEEQHAQLQAKYQDLSNKDTDLTDREKQLEERNRQIEEQENLYHQHVSKLQEMFDDLSQRKASFEKADQELKERNIEYANNVRELSERQMNLAMGQLPEDAKDIIAKSASNTDTTTKEATSRGNVHEDTVSKFVETTVENSNLNVNRVKDDEEKTERTESDVFDRDVPTLGSQSDSENANTNNGTQSGNETANPNLTETLSDRFDGDLNEYGIPRSQSLTSSVANNAPQSVRDDVELPETLEERDTINNTANRDNTGNLSHIPGEWEATPATASTDVLSNETTEVIEDGSTTKRANSNEDGESVSSIQESPKISAQPKAKTINEEFPPIQELHIDESDSSSSDDDEFEDTREIPSATVKTLQTPYNAQPTSSLEIHTEQVIKYPAPGTSPSHNEGNSKKASTNSILPVKDEFDDEFAGLEQAAVEEDNGADSESEFENVANAGSMEQFETIDHKDLDDELQMNAFTGTLTSSSNPTIPKPQVQQQSTSDPAQVSNDEWDEIFAGFGNSKAEPTKVATPSIPQQPIPLKNDPIVDASLSKGPIVNRGVATTPKSLAVEELSGMGFTEEEAHNALEKCNWDLEAATNFLLDSA
Kd [1]: 120 µM | Kd [2]: 86 µM | Kd [3]: 54 µM | Kd [4]: 31 µM
